Experimental data taken from article PMC5842622, “The Entamoeba histolytica TBP and TRF1 transcription factors are GAAC-box binding proteins, which display differential gene expression under different stress stimuli and during the interaction with ma”.

T1: rEhTBP (TATA-box binding protein) (Entamoeba histolytica, UniProt P52653 1-234)
T1 sequence: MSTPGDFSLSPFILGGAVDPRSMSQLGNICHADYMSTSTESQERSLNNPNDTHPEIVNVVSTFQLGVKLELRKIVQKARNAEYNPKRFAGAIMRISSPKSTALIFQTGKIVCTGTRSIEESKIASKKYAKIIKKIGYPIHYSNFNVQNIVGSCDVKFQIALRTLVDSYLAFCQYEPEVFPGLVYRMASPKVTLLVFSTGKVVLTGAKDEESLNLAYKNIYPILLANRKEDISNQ

T2: rEhTRF1 (TBP-related factor 1) (Entamoeba histolytica, UniProt A7UFC2 1-216)
T2 sequence: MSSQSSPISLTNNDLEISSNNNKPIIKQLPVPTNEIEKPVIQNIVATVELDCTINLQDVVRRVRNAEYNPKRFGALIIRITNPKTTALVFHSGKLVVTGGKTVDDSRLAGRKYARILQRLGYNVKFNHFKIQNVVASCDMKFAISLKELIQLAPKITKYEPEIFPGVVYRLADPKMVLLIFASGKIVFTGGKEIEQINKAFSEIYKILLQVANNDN


Key:
Conditions in all cases: protein: recombinant; tags: His tag; label: 5'-32P; blunt
[1] = biological target: T1, rEhTBP (TATA-box binding protein); assay: EMSA; 4 C, 1 mM MgCl2; EMSA: 12 mM Hepes pH 7.9, 60 mM KCl, 1 mM each DTT, EDTA, spermidine and MgCl2, 10% glycerol, poly(dG-dC) 1 ug/ul, 10 min at 4 C; probe 557 pM (TATA), 64 pM (GAAC) or 82 pM (GAAC-like)
[2] = biological target: T2, rEhTRF1 (TBP-related factor 1); assay: as above
[3] = biological target: T2, rEhTRF1 (TBP-related factor 1); assay: EMSA; specifically competed; EMSA: 12 mM Hepes pH 7.9, 60 mM KCl, 1 mM each DTT, EDTA, spermidine and MgCl2, 10% glycerol, poly(dG-dC) 1 ug/ul, 10 min at 4 C; probe 557 pM (TATA), 64 pM (GAAC) or 82 pM (GAAC-like)
[4] = biological target: T1, rEhTBP (TATA-box binding protein); assay: EMSA; complex barely competed by specific competitor; EMSA: 12 mM Hepes pH 7.9, 60 mM KCl, 1 mM each DTT, EDTA, spermidine and MgCl2, 10% glycerol, poly(dG-dC) 1 ug/ul, 10 min at 4 C; probe 557 pM (TATA), 64 pM (GAAC) or 82 pM (GAAC-like)

Row | Binder | Kd [1] | Kd [2] | binding result [1] | binding result [3] | binding result [4]
1 | TATTTAAA (1) (dsDNA) DNA 1: AATTCTCTATTTAAAGAGAATT DNA 2: AATTCTCTTTAAATAGAGAATT | 0.0207 nM | 0.0529 nM | – | – | –
2 | TAgTgAAA (2) (dsDNA) DNA 1: AATTCTCTAGTGAAAGAGAATT DNA 2: AATTCTCTTTCACTAGAGAATT | 0.0398 nM | 0.013 nM | – | – | –
3 | TATTggAA (3) (dsDNA) DNA 1: AATTCTCTATTGGAAGAGAATT DNA 2: AATTCTCTTCCAATAGAGAATT | 0.0357 nM | 0.0135 nM | – | – | –
4 | TATTaAAA (4) (dsDNA) DNA 1: AATTCTCTATTAAAAGAGAATT DNA 2: AATTCTCTTTTAATAGAGAATT | 0.00485 nM | 0.00398 nM | – | – | –
5 | TATgTAAA (5) (dsDNA) DNA 1: AATTCTCTATGTAAAGAGAATT DNA 2: AATTCTCTTTACATAGAGAATT | 0.00169 nM | 0.00674 nM | – | – | –
6 | gAgTTAAA (6) (dsDNA) DNA 1: AATTCTCGAGTTAAAGAGAATT DNA 2: AATTCTCTTTAACTCGAGAATT | 0.00473 nM | 0.00685 nM | – | – | –
7 | TAcTcAAA (7) (dsDNA) DNA 1: AATTCTCTACTCAAAGAGAATT DNA 2: AATTCTCTTTGAGTAGAGAATT | 0.00276 nM | 0.0298 nM | – | – | –
8 | cAcTcAAA (8) (dsDNA) DNA 1: AATTCTCCACTCAAAGAGAATT DNA 2: AATTCTCTTTGAGTGGAGAATT | 0.038 nM | 0.0308 nM | – | – | –
9 | cAcTTAAA (9) (dsDNA) DNA 1: AATTCTCCACTTAAAGAGAATT DNA 2: AATTCTCTTTAAGTGGAGAATT | – | 0.00972 nM | no binding | – | –
10 | TATTTttt (10) (dsDNA) DNA 1: AATTCTCTATTTTTTGAGAATT DNA 2: AATTCTCAAAAAATAGAGAATT | 0.0034 nM | 0.0254 nM | – | – | –
11 | GAAC-box (wild type) (dsDNA) DNA 1: AAGACAATGAACTAGAATG DNA 2: CATTCTAGTTCATTGTCTT | 0.019 nM | 0.0794 nM | – | – | –
12 | GAAC-like box (dsDNA) DNA 1: AGGCGAACTACAAAAGAT DNA 2: ATCTTTTGTAGTTCGCCT | – | – | – | binds | binds
